# Data reported in the supplement of paper PMC12764529.
# ± gives the half width of the 95% confidence interval.
# Experiments:
# [1] = folding stability dG unfold from trypsin proteolysis; higher = more stable
# Method in brief: (§1)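 Only designs with AlphaFold2 dimer inter-PAE above 15 were retained; each was a mini-protein under 80 residues with no cysteine, in a PA-tagged cDNA display construct. After digestion with trypsin and chymotrypsin and sequencing, K50 was inferred by Bayesian fitting of counts, and unfolding free energy was derived per protease or combined against a sequence-predicted unfolded-state K50 and a shared folded-state K50.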
# [2] = folding stability dG unfold (combined trypsin and chymotrypsin); higher = more stable
# Method in brief: as §1
# [3] = folding stability dG unfold from chymotrypsin proteolysis; higher = more stable
# Method in brief: as §1
Sequence,folding stability dG unfold [1] [kcal/mol],folding stability dG unfold [2] [kcal/mol],folding stability dG unfold [3] [kcal/mol]
SAGGSAGGSAGGAEKFKVLSVSWDLGKGKRYGVLEVERPDGPLLTIVVPLSYPDKLKELASAGGSAGGSAGG [r7_365_TrMRF],0.395 ± 0.14,1.02 ± 0.22,1.29 ± 0.17
SAGGSAGGSAGGAELLPSDVLKFTLTIQPDLKGSPPIIVEVTISVPPEVLEKPEIEVSLSAGGSAGGSAGGS [r10_672_JUSTAS],2.12 ± 0.15,2.7 ± 0.15,2.87 ± 0.093
SAGGSAGGSAGGAKKAIEEAIKAGYLPYEDPESGKIHFYFPTPDGTIHKLTLFVAPEEESAGGSAGGSAGGS [r10_1173_TrMRF],0.591 ± 0.03,0.796 ± 0.14,0.711 ± 0.17
SAGGSAGGSAGGAKTTTLGSESEEEIRAVAAKLPADSTITTNRPGGTSVITVSPNEIVTNSAGGSAGGSAGG [r7_560_JUSTAS],0.144 ± 0.043,0.836 ± 0.055,1.22 ± 0.046
SAGGSAGGSAGGALEEKAKEIIEELKKKGIKVKEVKTSPNEITITFEDGSTKKIPIINGSAGGSAGGSAGGS [r10_169_JUSTAS],2.55 ± 0.12,2.66 ± 0.1,2.54 ± 0.16
SAGGSAGGSAGGAPAAVESVEPLKIGDKEYLRITFPDGTTVTLPSSTPLSPDGQKLKPVPSAGGSAGGSAGG [r7_931_JUSTAS],0.65 ± 0.042,0.628 ± 0.033,0.503 ± 0.031
SAGGSAGGSAGGAPEKEVTVRVRITVFRDGKPVEEIELEPGQTLTFPPGARVVIEVELLPSAGGSAGGSAGG [r7_141_TrROS_Hall],3 ± 0.13,3.39 ± 0.17,3.51 ± 0.12
SAGGSAGGSAGGAPEVKRVLVLVEVEVKPGDTIELPEGARVIWDPKTRRLYVLVEVELRPSAGGSAGGSAGG [r7_584_TrROS_Hall],2.73 ± 0.12,3.38 ± 0.13,3.77 ± 0.057
SAGGSAGGSAGGAPPPPVKVKVVEIEEEGGERRIRVENEDTGEVVELRVPKGAEVLEELSAGGSAGGSAGGS [r10_1038_TrROS_Hall],1.32 ± 0.048,1.23 ± 0.16,1.37 ± 0.055
SAGGSAGGSAGGAPVEVKTAVFRHPDNPRWYVLRVARLPGTGRLVVVLFDPETGEFAVFPSAGGSAGGSAGG [r7_923_TrMRF],0.755 ± 0.087,1.67 ± 0.16,2.18 ± 0.16
SAGGSAGGSAGGATAEELAAALKELEAKLKALLEKPEEVEVEVEVKAPEVEEVDGKLVLLSAGGSAGGSAGG [r7_44_TrROS_Hall],0.651 ± 0.041,0.145 ± 0.11,-1.19 ± 0.33
SAGGSAGGSAGGATFKPGETVRVEVEVELRVFKVDEETGEIVEETETVTVRVEVEVRLESAGGSAGGSAGGS [r10_122_TrROS_Hall],1.87 ± 0.1,2.04 ± 0.11,2.32 ± 0.053
SAGGSAGGSAGGDDNDPGKIKIEVEVETYPIPNPNGEPFYITTHTIKIPNLDIEFMMIMPSAGGSAGGSAGG [r7_945_TrROS],2.01 ± 0.1,1.7 ± 0.11,1.45 ± 0.039
SAGGSAGGSAGGDIFIPPNGKLVVIENLPSIEEALEILKNFPNLKPFIDPKTKKIIVPVSAGGSAGGSAGGS [r10_792_TrMRF],-0.145 ± 0.075,-0.216 ± 0.099,-0.338 ± 0.045
SAGGSAGGSAGGDNVLILVKLPKGYRVYSINDPEVLKAVTLKELKDELEKKTGYPVEVLPSAGGSAGGSAGG [r7_259_TrMRF],1.48 ± 0.041,1.57 ± 0.22,1.66 ± 0.18
SAGGSAGGSAGGDPDDKPPKIEWKPIEYSFYLPNGWMISDEIWVFPDNGAILISIEIMPSAGGSAGGSAGGS [r10_881_TrROS],2.48 ± 0.21,3.37 ± 0.95,3.67 ± 0.31
SAGGSAGGSAGGDPKKKKGGTFTLTFKLKFTVNIPEGKVEYEFKAKIKITINEPPDFGLSSAGGSAGGSAGG [r7_485_TrMRF],3.81 ± 0.2,5.67 ± 0.3,5.81 ± 0.23
SAGGSAGGSAGGDRLKIIIPFPPGMDIDQIAEELKPHFKKVEIEHDKEDGWVTIEVELDSAGGSAGGSAGGS [r10_1007_TrROS],0.271 ± 0.097,0.939 ± 0.15,1.08 ± 0.1
SAGGSAGGSAGGDSMSYDPKLVEEPVVEVFDGPVLVRVTEVTLPNGKKLTTTEELPPGLESAGGSAGGSAGG [r7_846_JUSTAS],-0.436 ± 0.17,0.546 ± 0.09,0.796 ± 0.05
SAGGSAGGSAGGDSNVDNFTLMFPWGWVVKIDITYTDGGLETDWEIIEPVPPLPPDDKNKSAGGSAGGSAGG [r7_845_TrROS],1.6 ± 0.081,2.77 ± 0.12,3.54 ± 0.037
SAGGSAGGSAGGDSVQIEFPDNGMTITINPNNGPISIMEPDGKKKTYPVDSPEEALDAISAGGSAGGSAGGS [r10_849_TrROS],0.221 ± 0.027,1.14 ± 0.061,1.42 ± 0.042
